Amyloid nucleation score data for 97 substances are collected here from the supplement of paper PMC12042874.

± gives the uncertainty stated by the source.

A short description of the series: amyloid nucleation score (Sup35N fusion, yeast selection) (log enrichment); library NNK3; higher = more nucleation; inactive = no reads after selection. The essentials: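 In psi-negative yeast, Sup35N fusions carrying peptides of 20 random codons were induced with 100 μM copper sulfate for 24 hours. The cells then grew 7 days at 30°C on medium lacking adenine and uracil, and plasmid inserts from input and output were Illumina-sequenced, excluding sequences with under 100 input reads. Nucleation score is the DiMSum log enrichment of output over input reads, centred on the mode score of non-aggregating sequences.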
LGVALVTICVLRECGKILYI had an amyloid nucleation score of -0.107 ± 0.68.
The result for ETFFIYDVALQ reads “inactive”; that for YGCGIQGLVQWTCDTGRMHC, “inactive”; that for FKLVGDIYYQYVYALPRNKL, “inactive”.
NALLAFPYQGSMHKCGLGRY: the amyloid nucleation score entry is “inactive”.
The result for LGYLRFVLIYQTCCQLTKSP reads -0.617 ± 0.6; that for NSTKLKPYWGPG, “inactive”.
The result for SASEKTDSNVVEFCVGRCI reads “inactive”; that for WWSYQGRLVGCGYMRTDNAP, “inactive”; that for YCDSVWNQNSTYHISL, “inactive”.
The result for FIYYDRFVKPSPKQTVSFSA reads “inactive”; that for SWSFMFSFSNSATNAACLPQ, 0.327 ± 0.27; that for YRLCLDSCIKIYLQGWVYVY, “inactive”.
On to SSKCWSTSCFFKGKSLSSLG, for which the amyloid nucleation score entry was “inactive”.
Substance CGISSILIAFCCNHYIVQWM showed an amyloid nucleation score of 1.92 ± 0.054.
With CLNYSETCSPI, the amyloid nucleation score entry is “inactive”.
On to QGGGNIDSSVVTDSSDVVYS, for which the amyloid nucleation score entry is “inactive”.
As for RFLLDRACLWLRGVI, the amyloid nucleation score entry was “inactive”.
Turning to YLVRLVSDITRKNR, the amyloid nucleation score was determined as 2.37 ± 0.071.
The value for VVSHGF was “inactive”; that for HLVAVWVSWGILYRSVHCRS was “inactive”.
The result for FLVLFTL reads “inactive”; that for AYSSQSTCTFCASIFSDSKI, 2.68 ± 0.077.
The result for EVIVVKGHGVHIVFCVGSAS reads “inactive”; that for YSTFLFQGYLFLEPEYSGCR, “inactive”; that for WLWVGIGLRSYELLNEEW, “inactive”.
As to PLCNCVNRENSDGMMWGYRE, the amyloid nucleation score entry was “inactive”.
The value for EQRLSSGRWVS was “inactive”; that for RVVLMWDYLIDF was 1.08 ± 0.16; that for VSFRYAYYWFCRTMMTAAKR was “inactive”.
SRWNK: the amyloid nucleation score entry is “inactive”.
The result for LYSGFI reads “inactive”; that for LESSVMLLKRRIILVLCLHG, “inactive”.
Take AMFFYRWRCVGTGSFVMTGV: the amyloid nucleation score result is “inactive”.
Take SDLGHWHIFRYLAAIASRRK: the amyloid nucleation score result was “inactive”.
The value for IGKRIFKLCVMYGYYLHLNF was “inactive”; that for MDPESVWED was “inactive”; that for LNPPNKYDLDVFWVMVSYKK was “inactive”.
The result for LISNAQA reads “inactive”; that for FGQSLAEIRFLFIPIDKMRR, “inactive”; that for SPWAMGCECLVRGGLEKYAK, “inactive”.
The value for SSSKMW was “inactive”.
Regarding GNMKNHTMQFAEVVDGDFTM, the amyloid nucleation score entry was “inactive”.
LDAFRRLLEGASRTKCTF: the amyloid nucleation score entry is “inactive”.
The result for RVGVACKCFIQCLYFVFISI reads “inactive”.
The value for GVCGVLGFYFDPIITSL was “inactive”.
The result for DCALAAGMK reads “inactive”; that for TWNMFDGSVRHFSIWFSARS, “inactive”; that for VCHGRSNHA, “inactive”.
Consider KNFSFKATDWIVKSSVARCR, for which the amyloid nucleation score result is “inactive”.
For the substance SSMVTSLGCVLYKL, the amyloid nucleation score result is “inactive”.
The value for FNVLMGTSYFAISEIASVPA was “inactive”.
Turning to YSFRCVSTSVNGNRVMAAVS, the amyloid nucleation score result was “inactive”.
In the case of HGAVRQLNRGRKWSSLETVG, the amyloid nucleation score came out at 0.85 ± 0.19.
The value for ASTLLHYCLLNSGYEWSGQC was 0.251 ± 0.81; that for CEIRSCGENFNATSRGRPGI was “inactive”.
On to AVNCESSCCECYGTFMDKPV, for which the amyloid nucleation score entry is “inactive”.
As to NLGLLKAVYCVG, the amyloid nucleation score result was “inactive”.
The value for AGVVHRWGLQCFSLNFECGC was 2.08 ± 0.079.
As for WGTLTLCTGDAGLSMTGKWV, the amyloid nucleation score is 0.399 ± 0.43.
Regarding DRRNNVRFVVLFSRRYCGQA, the amyloid nucleation score entry is “inactive”.
The result for QGGGVCPCPKMVSFQMMYVI reads “inactive”.
Regarding NQCPIRYLWL, the amyloid nucleation score turned out to be 1.43 ± 0.11.
With LHMCNS, the amyloid nucleation score result was “inactive”.
The result for MVWKHYTSLNRDCVFNICCW reads 1.78 ± 0.063.
As for CWADSDSVSKKSRIA, the amyloid nucleation score result is “inactive”.
The value for IGGVAGQRGSIA was “inactive”; that for DWVMADRMSPVKIMYATSSG was “inactive”.
With FDDPHGTVTCED, the amyloid nucleation score was -0.176 ± 0.98.
The value for YLTGTMSVEFRPHGMPNLSK was 1.82 ± 0.08; that for AKVRLDGSIGEVHFMELVSY was “inactive”; that for FVSVDGWSESMWLASVVLSE was “inactive”.
The value for EKFRWQSISIEVECSMAVQH was “inactive”.
The value for RSNTPPGISLARPFYPKNRV was “inactive”; that for KLLSTRRCFRCLLGQWSLFM was 1.17 ± 0.14.
With FIGLIVLILRVFGYDTMRYL, the amyloid nucleation score result is “inactive”.
The value for WSRSNGVFVGGRNCFLAQDF was “inactive”.
The result for MVLNERFFYTSTTGVICVTC reads 1.73 ± 0.064; that for RFDDRG, “inactive”; that for VVHYSLVVPSDGW, “inactive”.
Take FFVTR: the amyloid nucleation score entry was “inactive”.
The result for MTSMLVTMMPCWVMRFVVWE reads “inactive”.
As to PTIQQDWIAFYIHSCEFLVL, the amyloid nucleation score entry was “inactive”.
The value for FKLTDLCC was “inactive”; that for ILQCGS was “inactive”.
The result for SPCYISINTFPVRKILYPCI reads -0.264 ± 0.64; that for RYFSW, “inactive”.
The value for LYGDL was “inactive”.
Take FIYIRYPHRRS: the amyloid nucleation score entry was “inactive”.
The value for TLEFHPRAINYDHRMNMFSR was “inactive”.
For YPNIERFTETWISYVDQNRG, the amyloid nucleation score is -0.083 ± 0.58.
For SLLSRFIEEGASCRCTRDGS, the amyloid nucleation score entry is “inactive”.
On to ESFHMFFFQLLSYCFSNCGW, for which the amyloid nucleation score result was “inactive”.
The value for FMDKLIESFTYCWCTFGYAH was “inactive”.
As to GSRVLKAWGSLSLILTSYDG, the amyloid nucleation score result was “inactive”.
In the case of LTRLLGDLIPPVNMGARECD, the amyloid nucleation score result was “inactive”.
As to IQCYNLSLPAGGEKLVRKRV, the amyloid nucleation score entry was “inactive”.
